From patent publication US20250289893A1 (OXFORD UNIVERSITY INNOVATION, published 2025)
Numbering of substitutions follows the chain as printed.

B1: 110 (VR12112) (antibody, V domains shown)
VH: QSVEESGGRLVTPGTPLTLTCTVSGFSLSSYAMIWVRQAPGKGLEWIGIINSSDNTHYATWAKGRFTISKTSTTVDLKITSPTTEDTATYFCARDPYDYGYGWYFDLWGPGTLVTVSS
VL: AQVLTQTPSPVSAAVGGTVTINCQASQSVFNNKNLAWYQQKPGQPPKLLIYKASTLASGVSSRFKGSGSGTQFALTISGVQCDDAATYYCQGEFSCSSTDCVTFGGGTEVVVK
notes: also called OX110; antibody 110
B2: 77A (VR11851) (antibody, V domains shown)
VH: QSVEESGGRLVTPGTPLTLTCTVSGFSLSSYAMSWVRQAPGKGLEWIGIISSSGTTYYASWAKGRFTISKTSTTVDLKITSPTTEDTATYFCARVDYYSSGWGGLWGPGTLVTVSS
VL: AVEMTQTPASMSAAVGGTVTIKCQASEDIYSNLAWYQQKPGQPPKLLIYGASTLASGVPSRFKGSGSGTEYTLTISGVQCDDAATYYCQCTYDTSSYGNTFGGGTEMVVE
notes: also called OX77a; antibody 77a
B3: 111 (VR12113) (antibody, V domains shown)
VH: QSVEESGGRLVTPGTPLTLTCTASGFSLSTYAMSWVRQAPGKGLEWIGIISSSGSTYYASWAKGRFTISKTSTTVDLKITSPTTEDTATYFCARETWYWLDLWGQGTLVTVSS
VL: B2 VL with M11V, K22N, T91A, T94S, N99T, T100P, M107V, E110K
notes: also called OX111

Tests used:
[1] = molecular target: Chinese variant CD1a protein (human) (UniProt P06126); experiment: ELISA, 0.1 µg/ml antibody
[2] = molecular target: T1, human CD1a expressed on cells (human, UniProt P06126 17-327; P61769 21-119); experiment: flow cytometry, MOLT4 cells, 0.1 µg/ml antibody
T1 construct: also called HEK - CD1a; C1R - CD1a
Procedure: (§1) CD1a-specific antibodies were identified by flow cytometry. Binding to proteins expressed on HEK, C1R and MOLT4 cell lines was assessed. […] The C1R-CD1a, C1R-empty vector and MOLT4 cell lines were washed in 1×PBS on the day required. All cell lines were counted and resuspended in 1×PBS and then stained for 30 minutes at 37° C. using the DiI or DiO cellular stains (Invitrogen). Cells were washed with flow cytometry buffer (1% bovine serum albumin, 2 mM EDTA and 0.1% sodium azide in PBS) before mixing 2 DiI-stained and DiO-stained populations together. The cells (20 μl/well) were then added to dilutions of antibody sample (B cell culture supernatant, TAP supernatant, clone supernatant, purified antibody solution) (20 μl/well) and incubated for 1 hour at 4° C. in a flow cytometry assay plate, before being washed with flow cytometry buffer. 10 μl/well of Alexafluor647-conjugated goat anti-species IgG Fc-specific F(ab′)2 fragment (Jackson ImmunoResearch), diluted 1:2500 in flow cytometry buffer, was added and incubated at 4° C. for 30 minutes, followed by washing with wash buffer. The fluorescence intensity was then measured on an iQue screener PLUS.
(§2) Binding was quantified as fold change in fluorescence intensity geomean over background assessed by flow cytometry.

[3] = molecular target: T2, human CD1d expressed on HEK-293 cells (human, UniProt P15813 20-335; P61769 21-119); experiment: flow cytometry, HEK-293 cells, 0.0316 µg/ml antibody
T2 construct: also called HEK - CD1d
Procedure: (§3) Binding to proteins expressed on HEK, C1R and MOLT4 cell lines was assessed. […] The C1R-CD1a, C1R-empty vector and MOLT4 cell lines were washed in 1×PBS on the day required. All cell lines were counted and resuspended in 1×PBS and then stained for 30 minutes at 37° C. using the DiI or DiO cellular stains (Invitrogen). Cells were washed with flow cytometry buffer (1% bovine serum albumin, 2 mM EDTA and 0.1% sodium azide in PBS) before mixing 2 DiI-stained and DiO-stained populations together. The cells (20 μl/well) were then added to dilutions of antibody sample (B cell culture supernatant, TAP supernatant, clone supernatant, purified antibody solution) (20 μl/well) and incubated for 1 hour at 4° C. in a flow cytometry assay plate, before being washed with flow cytometry buffer. 10 μl/well of Alexafluor647-conjugated goat anti-species IgG Fc-specific F(ab′)2 fragment (Jackson ImmunoResearch), diluted 1:2500 in flow cytometry buffer, was added and incubated at 4° C. for 30 minutes, followed by washing with wash buffer. The fluorescence intensity was then measured on an iQue screener PLUS.
(§4) HEK-293 cells were transiently transfected with human CD1a, CD1b, CD1c or CD1d and co-transfected with human β2M.

[4] = molecular target: T3, human CD1c expressed on HEK-293 cells (human, UniProt P29017 18-333; P61769 21-119); experiment: as above
T3 construct: also called HEK - CD1c
Procedure: as §3, §4

[5] = molecular target: T1, human CD1a expressed on cells; experiment: as above
Procedure: as §3, §4

[6] = molecular target: T4, human CD1b expressed on HEK-293 cells (human, UniProt P29016 18-333; P61769 21-119); experiment: as above
T4 construct: also called HEK - CD1b
Procedure: as §3, §4

[7] = molecular target: T5, Cynomolgus monkey CD1a expressed on HEK-293 cells (Cynomolgus monkey, UniProt A0A2K5VQ68 17-326); experiment: flow cytometry, HEK-293 cells, 0.1 µg/ml antibody
Procedure: as §3, §2

[8] = molecular target: T2, human CD1d expressed on HEK-293 cells; experiment: flow cytometry, HEK-293 cells, 3.16 µg/ml antibody
Procedure: as §3, §4

[9] = molecular target: T1, human CD1a expressed on cells; experiment: flow cytometry, HEK-293 cells, 3.16 µg/ml antibody
Procedure: as §3, §4

[10] = molecular target: T4, human CD1b expressed on HEK-293 cells; experiment: flow cytometry, HEK-293 cells, 3.16 µg/ml antibody
Procedure: as §3, §4

[11] = molecular target: T6, human CD1a protein (pool B) (human, UniProt P06126 18-295, limits assumed); experiment: ELISA, 100 µg/ml antibody
T6 construct: Recombinant protein of the ELISA (coated) and the Biacore T200 titration; whole entry named; also called human CD1a pool B; full length CD1a
Procedure: (§5) CD1a-specific antibodies were identified by ELISA. […] 20 μl/well of peroxidase-conjugated goat anti-species IgG Fc-specific F(ab′)2 fragment (Jackson ImmunoResearch), diluted 1:5000 in block buffer was added and incubated at room temperature for 1 hour, followed by washing with wash buffer.
(§6) The antibodies were titrated through a dilution series and compared to a control rabbit IgG antibody.

[12] = molecular target: T1, human CD1a expressed on cells; experiment: flow cytometry, C1R cells, 0.316 µg/ml antibody
Procedure: as §3, §2

[13] = molecular target: T6, human CD1a protein (pool B); experiment: ELISA, 0.316 µg/ml antibody
Procedure: as §5, §6

[14] = molecular target: T2, human CD1d expressed on HEK-293 cells; experiment: flow cytometry, HEK-293 cells, 100 µg/ml antibody
Procedure: as §3, §4

[15] = molecular target: T3, human CD1c expressed on HEK-293 cells; experiment: flow cytometry, HEK-293 cells, 100 µg/ml antibody
Procedure: as §3, §4

[16] = molecular target: T1, human CD1a expressed on cells; experiment: flow cytometry, HEK-293 cells, 100 µg/ml antibody
Procedure: as §3, §4

[17] = molecular target: T4, human CD1b expressed on HEK-293 cells; experiment: flow cytometry, HEK-293 cells, 100 µg/ml antibody
Procedure: as §3, §4

[18] = molecular target: T1, human CD1a expressed on cells; experiment: flow cytometry, MOLT4 cells, 1 µg/ml antibody
Procedure: as §1, §2

[19] = molecular target: T1, human CD1a expressed on cells; experiment: flow cytometry, C1R cells, 1 µg/ml antibody
Procedure: as §3, §2

[20] = molecular target: T2, human CD1d expressed on HEK-293 cells; experiment: flow cytometry, HEK-293 cells
Procedure: as §3, §4

[21] = molecular target: T3, human CD1c expressed on HEK-293 cells; experiment: flow cytometry, HEK-293 cells
Procedure: as §3, §4

[22] = molecular target: T4, human CD1b expressed on HEK-293 cells; experiment: flow cytometry, HEK-293 cells
Procedure: as §3, §4

[23] = molecular target: T6, human CD1a protein (pool B); experiment: SPR (Biacore T200), antibody captured, human CD1a titrated, 1:1 binding model
Procedure: The affinity of the purified antibodies to human CD1a was assessed using a Biacore T200 instrument (GE Healthcare) by capturing the antibody to an immobilized anti-species IgG F(ab′)2 followed by titration of human CD1a. Affinipure Goat anti-species IgG-F(ab′)2 fragment specific (Jackson ImmunoResearch) was immobilized on a CM5 Sensor Chip (GE Healthcare) via amine coupling chemistry to a capture level of ˜5000 response units (RUs). HBS-EP+ buffer (10 mM HEPES pH 7.4, 0.15 M NaCl, 3 mM EDTA, 0.05% Surfactant P20, GE Healthcare) was used as the running buffer with a flow rate of 10 μL/min. A 10 μL injection of test antibody at 0.5 μg/mL was used for capture by the immobilized Goat Anti-species Fab.
The surface was regenerated between cycles by injection of 2×10 μL of 40 mM HCl, interspersed by a 10 μL injection of 5 mM NaOH at flowrate of 10 μL/min. Background subtraction binding curves were analyzed using the Biacore T200 evaluation software following standard procedures. Kinetic parameters were determined from the fitting algorithm. This assay was performed at the clone supernatant and purified antibody stage.
Affinity was required to be <100 nM to be considered for progression.

[24] = molecular target: Chinese variant CD1a protein (human) (UniProt P06126); experiment: ELISA, 1 µg/ml antibody
[25] = molecular target: T5, Cynomolgus monkey CD1a expressed on …; experiment: flow cytometry, HEK-293 cells, 0.01 µg/ml antibody
Procedure: as §3, §2

[26] = molecular target: chimeric CD1a pool B protein [human CD1a lipid binding domain, mouse CD1d Ig domain] (human; mouse, UniProt P06126 18-201; P11609 205-297, limits assumed); experiment: ELISA, 3.16 µg/ml antibody
Procedure: as §5
The antibodies were titrated through a dilution series and compared to a control rabbit IgG antibody. […] Data shown for purified antibodies.

[27] = molecular target: T6, human CD1a protein (pool B); experiment: ELISA, 0.1 µg/ml antibody
Procedure: as §5, §6

Chain of chimeric CD1a pool B protein [human CD1a lipid binding domain, mouse CD1d Ig domain] (P06126 other isoform, or with tags, fused parts or gaps mutant limits assumed): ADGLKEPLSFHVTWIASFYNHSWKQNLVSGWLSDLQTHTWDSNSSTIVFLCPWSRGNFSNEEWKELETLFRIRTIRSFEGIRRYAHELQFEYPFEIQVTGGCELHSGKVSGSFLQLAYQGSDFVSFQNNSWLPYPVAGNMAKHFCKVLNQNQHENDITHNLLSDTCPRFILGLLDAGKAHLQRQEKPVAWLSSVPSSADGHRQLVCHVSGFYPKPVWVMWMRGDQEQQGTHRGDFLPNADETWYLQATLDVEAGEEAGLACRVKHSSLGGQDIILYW
T5 sequence (A0A2K5VQ68 entry or part of it): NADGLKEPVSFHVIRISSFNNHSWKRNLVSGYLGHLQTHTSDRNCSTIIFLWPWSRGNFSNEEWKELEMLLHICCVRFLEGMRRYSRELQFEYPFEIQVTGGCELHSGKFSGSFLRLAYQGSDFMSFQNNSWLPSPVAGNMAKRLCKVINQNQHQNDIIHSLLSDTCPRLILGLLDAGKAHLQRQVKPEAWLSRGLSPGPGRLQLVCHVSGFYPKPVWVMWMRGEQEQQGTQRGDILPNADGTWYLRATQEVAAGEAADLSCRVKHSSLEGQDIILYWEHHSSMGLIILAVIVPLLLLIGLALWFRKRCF
T6 sequence (P06126 18-295 limits assumed): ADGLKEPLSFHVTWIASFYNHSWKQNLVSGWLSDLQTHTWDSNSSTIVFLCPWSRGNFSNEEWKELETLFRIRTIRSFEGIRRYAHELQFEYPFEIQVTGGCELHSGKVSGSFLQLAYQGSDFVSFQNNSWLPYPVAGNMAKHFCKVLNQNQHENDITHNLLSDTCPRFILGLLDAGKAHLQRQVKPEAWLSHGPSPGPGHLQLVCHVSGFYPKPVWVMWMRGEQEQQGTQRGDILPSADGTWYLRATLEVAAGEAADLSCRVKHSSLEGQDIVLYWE
Chain of Chinese variant CD1a protein (human) (P06126 18-295, change not shown): as the sequence (P06126 18-295 limits assumed) above

Binder | Optical Density (OD) [1] [OD] | Fluorescence Intensity Geomean (normalized to background) [2] [fold over background] | Fluorescence Intensity Geomean (normalized to background) [3] [fold over background] | Fluorescence Intensity Geomean (normalized to background) [4] [fold over background] | Fluorescence Intensity Geomean (normalized to background) [5] [fold over background] | Fluorescence Intensity Geomean (normalized to background) [6] [fold over background] | Fluorescence Intensity Geomean (normalized to background) [7] [fold over background] | Fluorescence Intensity Geomean (normalized to background) [8] [fold over background] | Fluorescence Intensity Geomean (normalized to background) [9] [fold over background] | Fluorescence Intensity Geomean (normalized to background) [10] [fold over background] | Optical Density (OD) [11] [OD] | Fluorescence Intensity Geomean (normalized to background) [12] [fold over background] | Optical Density (OD) [13] [OD] | Fluorescence Intensity Geomean (normalized to background) [14] [fold over background] | Fluorescence Intensity Geomean (normalized to background) [15] [fold over background] | Fluorescence Intensity Geomean (normalized to background) [16] [fold over background] | Fluorescence Intensity Geomean (normalized to background) [17] [fold over background] | Fluorescence Intensity Geomean (normalized to background) [18] [fold over background] | Fluorescence Intensity Geomean (normalized to background) [19] [fold over background] | binding result [20] | other results
B1 | 1.57 | 16.8 | 1 | 1 | 8.9 | 1 | 3.3 | 1 | 31.5 | 1.1 | 1.23 | 29.7 | 1.18 | 1.1 | 1 | 5.9 | 1.1 | 33 | 28.2 | no binding (tested: 100 µg/ml (highest tested)) | binding result [21]: no binding (tested: 100 µg/ml (highest tested)); binding result [22]: no binding (tested: 100 µg/ml (highest tested)); Kd [23]: 1970 pM; Optical Density (OD) [24]: 1.79 OD; Fluorescence Intensity Geomean (normalized to background) [25]: 1.2 fold over background; Optical Density (OD) [26]: 1.53 OD
B2 | 1.05 | 12.4 | 0.9 | 1 | 24.9 | 0.9 | 5.7 | 0.9 | 23.3 | 0.9 | 1.39 | 19 | 1.39 | 1 | 0.9 | 4.1 | 1 | 13.5 | 10.3 | no binding (tested: 100 µg/ml (highest tested)) | Optical Density (OD) [27]: 1.36 OD; binding result [21]: no binding (tested: 100 µg/ml (highest tested)); binding result [22]: no binding (tested: 100 µg/ml (highest tested)); Kd [23]: 240 pM; koff [23]: 0.000113 s⁻¹; kon [23]: 469000 M⁻¹ s⁻¹; Optical Density (OD) [24]: 0.78 OD; Fluorescence Intensity Geomean (normalized to background) [25]: 1.7 fold over background; Optical Density (OD) [26]: 1.28 OD
B3 | 1.52 | 20.6 | 1 | 1 | 11.1 | 1 | 25.8 | 1.1 | 24.9 | 1.1 | 1.12 | 28.8 | 1.04 | 1.1 | 1.1 | 4.3 | 1.1 | 31.2 | 28 | no binding (tested: 100 µg/ml (highest tested)) | Optical Density (OD) [27]: 1.06 OD; binding result [21]: no binding (tested: 100 µg/ml (highest tested)); binding result [22]: no binding (tested: 100 µg/ml (highest tested)); Kd [23]: ≤ 31.2 pM; koff [23]: < 1e-05 s⁻¹; kon [23]: 321000 M⁻¹ s⁻¹; Optical Density (OD) [24]: 1.44 OD; Fluorescence Intensity Geomean (normalized to background) [25]: 8.9 fold over background; Optical Density (OD) [26]: 1.41 OD
